Measured values published in paper PMC8761493, “New insights into the phosphorylation of the threonine motif of the β1 integrin cytoplasmic domain” (Life Science Alliance, 2022).
Non-standard residues stand in square brackets, D forms with d. No end group written: not given here. pT = C[C@@H](OP(=O)(O)O)[C@H](N)C(=O)O

What was measured:
[1] = biological target: talin-1 head domain (THD) (UniProt P26039); assay: Microscale thermophoresis (MST) affinity measurement; assay type: binding; settings: 200 nM Atto488-labeled β1-tail peptide, 20 mM Tris pH 7.5, 200 mM NaCl, 1 mM TCEP, 0.05% Tween-20
Protocol: All MST measurements were performed on a Monolith NT.115 red-blue (Nanotemper) using premium-coated capillaries to reduce non-specific interaction of the proteins with the glass surface. Both interaction partners (ligand and receptor) were transferred into MST buffer (20 mM Tris, pH 7.5, 200 mM sodium chloride, 1 mM tris(2-carboxyethyl)phosphine [TCEP], 0.05% Tween-20) to avoid artifacts derived from buffer mismatches. […] The measurements were carried out at 20% light emitting diode power and 20% and 40% MST power. Data were analyzed using the MO Affinity Analysis Software (Nanotemper).

kindlin-2 = biological target: T1, kindlin-2 (Homo sapiens, UniProt Q96AC1); assay: as above; assay type: binding; settings: 200 nM Atto488-labeled β1-tail peptide, 20 mM Tris pH 7.5, 200 mM NaCl, 1 mM TCEP, 0.05% Tween-20
T1 sequence (Q96AC1 1-680): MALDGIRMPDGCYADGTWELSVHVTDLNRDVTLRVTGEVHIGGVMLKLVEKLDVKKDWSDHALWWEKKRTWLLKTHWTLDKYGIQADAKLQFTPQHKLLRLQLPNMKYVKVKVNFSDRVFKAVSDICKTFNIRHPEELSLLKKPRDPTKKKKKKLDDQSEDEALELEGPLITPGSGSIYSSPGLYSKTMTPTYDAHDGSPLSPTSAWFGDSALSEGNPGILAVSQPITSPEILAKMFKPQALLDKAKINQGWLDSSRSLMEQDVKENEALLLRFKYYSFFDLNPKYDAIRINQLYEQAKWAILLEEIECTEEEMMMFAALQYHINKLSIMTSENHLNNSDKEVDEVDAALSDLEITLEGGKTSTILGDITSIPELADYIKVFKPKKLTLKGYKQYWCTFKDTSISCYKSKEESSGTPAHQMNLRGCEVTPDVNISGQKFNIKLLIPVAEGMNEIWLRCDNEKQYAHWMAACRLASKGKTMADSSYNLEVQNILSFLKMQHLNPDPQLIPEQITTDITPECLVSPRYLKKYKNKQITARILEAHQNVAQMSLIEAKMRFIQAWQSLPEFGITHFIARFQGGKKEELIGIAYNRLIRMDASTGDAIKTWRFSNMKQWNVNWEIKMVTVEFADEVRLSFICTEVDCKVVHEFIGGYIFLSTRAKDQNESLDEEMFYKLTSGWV

[2] = test system: anti-β1-pTpT integrin antibody (Abcam); assay: Integrin peptide ELISA (direct ELISA, immobilized tail peptides); assay type: binding; settings: antibody dilution range 1:500 to 1:10,000 (Fig 1E)
Protocol: (§1) The plates were blocked with 200 μl PBS containing 3% BSA for 1 h at room temperature and then washed thrice with 200 μl PBS. Different dilutions of the anti–β1-pTpT antibodies (Thermo Fisher Scientific and Abcam) in 100 μl PBS supplemented with 3% BSA were incubated for 2 h at room temperature. After washing thrice with 200 μl PBS, 100 μl of anti-rabbit-IgG HRP-conjugate was added (1:10,000 in PBS supplemented with 3% BS) and incubated for 1 h at room temperature. The plates were washed thrice with 200 μl PBS, developed with 100 μl of ABTS substrate solution (1-Step ABTS; Thermo Fisher Scientific) before measuring absorbance at λ = 405 nm in a SpectraMax ABS Plus plate reader (Molecular Devices).

[3] = test system: anti-β1-pTpT integrin antibody (Thermo Fisher Scientific); assay: as above; assay type: binding; settings: antibody dilution range 1:500 to 1:10,000 (Fig 1D)
Protocol: as §1

FNIII7-10^RGD = assay: AFM-based single-cell force spectroscopy (binding probability); single fibroblast on a concanavalin A-coated cantilever brought onto glass coated with 50 μg/ml FN fragment; contact force 200 pN, contact time ~300 ms, 37°C, 1 μM cilengitide
FNIII7-10^ΔRGD = assay: as above
endogenous SNX17 = assay: Peptide pull-down from whole cell lysate, Western blot; assay type: binding; settings: Western blot, n = 5
Protocol: (§2) Before use, peptides were immobilized on 25 μl Dynabeads MyOne Streptavidin C1 (10 mg/ml; Invitrogen) in Mammalian Protein Extraction Reagent (Thermo Fisher Scientific) containing protease inhibitors (cOmplete; Roche) and phosphatase inhibitors (Phosphatase Inhibitor Cocktail 2 and 3; Sigma-Aldrich) for 3 h at 4°C. Cell lysates were prepared with MPER containing protease and phosphatase inhibitors and 0.5 mg of supernatant was incubated with the peptide-coated beads at 4°C under constant rotation. For pull-downs with recombinant proteins, synthetic β1 integrin tail peptides were immobilized on 25 μl Dynabeads MyOne Streptavidin C1 (10 mg/ml; Invitrogen) for 3 h at 4°C, incubated with 2% BSA in Mammalian Protein Extraction Reagent (Thermo Scientific Scientific) for 30 min at 4°C to block unspecific binding before adding kindlin-2 or THD (conc 2.5 and 8.5 nM, respectively) and further incubation on a rotator for 2 h at 4°C. After washing the beads three times with lysis buffer, the proteins bound to the beads were eluted using Laemmli buffer, separated on a 10% SDS–PAGE, and analyzed by Western blotting.

endogenous kindlin-2 = assay: as above; assay type: binding; settings: Western blot, n = 5
Protocol: as §2

[4] = biological target: T2, recombinant talin-1 head domain (THD); assay: MST
T2 chain: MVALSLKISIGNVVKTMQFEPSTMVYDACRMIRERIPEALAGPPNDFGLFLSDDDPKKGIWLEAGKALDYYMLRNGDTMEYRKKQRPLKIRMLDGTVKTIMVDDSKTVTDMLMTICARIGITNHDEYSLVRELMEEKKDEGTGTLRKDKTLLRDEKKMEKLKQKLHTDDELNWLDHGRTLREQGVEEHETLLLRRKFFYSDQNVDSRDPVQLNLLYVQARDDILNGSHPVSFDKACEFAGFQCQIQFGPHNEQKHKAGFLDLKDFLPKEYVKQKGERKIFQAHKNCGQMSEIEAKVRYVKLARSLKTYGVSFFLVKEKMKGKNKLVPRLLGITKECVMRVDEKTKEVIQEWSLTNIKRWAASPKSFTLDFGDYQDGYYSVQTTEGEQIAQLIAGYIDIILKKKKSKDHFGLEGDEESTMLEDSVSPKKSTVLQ

recombinant kindlin-2 = biological target: T3, recombinant kindlin-2 (UniProt Q8CIB5 1-680); assay: MST
T3 chain: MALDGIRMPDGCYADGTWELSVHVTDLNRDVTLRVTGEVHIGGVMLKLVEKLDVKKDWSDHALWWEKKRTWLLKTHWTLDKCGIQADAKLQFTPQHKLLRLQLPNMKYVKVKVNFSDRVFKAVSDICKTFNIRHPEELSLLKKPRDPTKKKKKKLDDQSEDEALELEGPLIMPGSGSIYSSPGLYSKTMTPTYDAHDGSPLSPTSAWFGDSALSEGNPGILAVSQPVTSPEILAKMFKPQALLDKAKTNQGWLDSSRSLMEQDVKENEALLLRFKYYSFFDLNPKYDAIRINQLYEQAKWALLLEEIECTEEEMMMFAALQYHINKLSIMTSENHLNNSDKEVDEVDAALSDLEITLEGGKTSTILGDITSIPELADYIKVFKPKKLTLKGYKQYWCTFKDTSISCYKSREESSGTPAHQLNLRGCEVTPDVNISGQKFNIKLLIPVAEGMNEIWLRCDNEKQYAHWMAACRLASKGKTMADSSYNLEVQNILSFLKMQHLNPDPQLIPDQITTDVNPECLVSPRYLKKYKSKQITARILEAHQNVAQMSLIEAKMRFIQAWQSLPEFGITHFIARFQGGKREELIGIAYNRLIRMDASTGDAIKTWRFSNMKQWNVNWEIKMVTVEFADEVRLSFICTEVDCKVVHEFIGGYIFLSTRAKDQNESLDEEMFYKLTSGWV

Chain of talin-1 head domain (THD) (P26039 whole entry, the tested form may be a part): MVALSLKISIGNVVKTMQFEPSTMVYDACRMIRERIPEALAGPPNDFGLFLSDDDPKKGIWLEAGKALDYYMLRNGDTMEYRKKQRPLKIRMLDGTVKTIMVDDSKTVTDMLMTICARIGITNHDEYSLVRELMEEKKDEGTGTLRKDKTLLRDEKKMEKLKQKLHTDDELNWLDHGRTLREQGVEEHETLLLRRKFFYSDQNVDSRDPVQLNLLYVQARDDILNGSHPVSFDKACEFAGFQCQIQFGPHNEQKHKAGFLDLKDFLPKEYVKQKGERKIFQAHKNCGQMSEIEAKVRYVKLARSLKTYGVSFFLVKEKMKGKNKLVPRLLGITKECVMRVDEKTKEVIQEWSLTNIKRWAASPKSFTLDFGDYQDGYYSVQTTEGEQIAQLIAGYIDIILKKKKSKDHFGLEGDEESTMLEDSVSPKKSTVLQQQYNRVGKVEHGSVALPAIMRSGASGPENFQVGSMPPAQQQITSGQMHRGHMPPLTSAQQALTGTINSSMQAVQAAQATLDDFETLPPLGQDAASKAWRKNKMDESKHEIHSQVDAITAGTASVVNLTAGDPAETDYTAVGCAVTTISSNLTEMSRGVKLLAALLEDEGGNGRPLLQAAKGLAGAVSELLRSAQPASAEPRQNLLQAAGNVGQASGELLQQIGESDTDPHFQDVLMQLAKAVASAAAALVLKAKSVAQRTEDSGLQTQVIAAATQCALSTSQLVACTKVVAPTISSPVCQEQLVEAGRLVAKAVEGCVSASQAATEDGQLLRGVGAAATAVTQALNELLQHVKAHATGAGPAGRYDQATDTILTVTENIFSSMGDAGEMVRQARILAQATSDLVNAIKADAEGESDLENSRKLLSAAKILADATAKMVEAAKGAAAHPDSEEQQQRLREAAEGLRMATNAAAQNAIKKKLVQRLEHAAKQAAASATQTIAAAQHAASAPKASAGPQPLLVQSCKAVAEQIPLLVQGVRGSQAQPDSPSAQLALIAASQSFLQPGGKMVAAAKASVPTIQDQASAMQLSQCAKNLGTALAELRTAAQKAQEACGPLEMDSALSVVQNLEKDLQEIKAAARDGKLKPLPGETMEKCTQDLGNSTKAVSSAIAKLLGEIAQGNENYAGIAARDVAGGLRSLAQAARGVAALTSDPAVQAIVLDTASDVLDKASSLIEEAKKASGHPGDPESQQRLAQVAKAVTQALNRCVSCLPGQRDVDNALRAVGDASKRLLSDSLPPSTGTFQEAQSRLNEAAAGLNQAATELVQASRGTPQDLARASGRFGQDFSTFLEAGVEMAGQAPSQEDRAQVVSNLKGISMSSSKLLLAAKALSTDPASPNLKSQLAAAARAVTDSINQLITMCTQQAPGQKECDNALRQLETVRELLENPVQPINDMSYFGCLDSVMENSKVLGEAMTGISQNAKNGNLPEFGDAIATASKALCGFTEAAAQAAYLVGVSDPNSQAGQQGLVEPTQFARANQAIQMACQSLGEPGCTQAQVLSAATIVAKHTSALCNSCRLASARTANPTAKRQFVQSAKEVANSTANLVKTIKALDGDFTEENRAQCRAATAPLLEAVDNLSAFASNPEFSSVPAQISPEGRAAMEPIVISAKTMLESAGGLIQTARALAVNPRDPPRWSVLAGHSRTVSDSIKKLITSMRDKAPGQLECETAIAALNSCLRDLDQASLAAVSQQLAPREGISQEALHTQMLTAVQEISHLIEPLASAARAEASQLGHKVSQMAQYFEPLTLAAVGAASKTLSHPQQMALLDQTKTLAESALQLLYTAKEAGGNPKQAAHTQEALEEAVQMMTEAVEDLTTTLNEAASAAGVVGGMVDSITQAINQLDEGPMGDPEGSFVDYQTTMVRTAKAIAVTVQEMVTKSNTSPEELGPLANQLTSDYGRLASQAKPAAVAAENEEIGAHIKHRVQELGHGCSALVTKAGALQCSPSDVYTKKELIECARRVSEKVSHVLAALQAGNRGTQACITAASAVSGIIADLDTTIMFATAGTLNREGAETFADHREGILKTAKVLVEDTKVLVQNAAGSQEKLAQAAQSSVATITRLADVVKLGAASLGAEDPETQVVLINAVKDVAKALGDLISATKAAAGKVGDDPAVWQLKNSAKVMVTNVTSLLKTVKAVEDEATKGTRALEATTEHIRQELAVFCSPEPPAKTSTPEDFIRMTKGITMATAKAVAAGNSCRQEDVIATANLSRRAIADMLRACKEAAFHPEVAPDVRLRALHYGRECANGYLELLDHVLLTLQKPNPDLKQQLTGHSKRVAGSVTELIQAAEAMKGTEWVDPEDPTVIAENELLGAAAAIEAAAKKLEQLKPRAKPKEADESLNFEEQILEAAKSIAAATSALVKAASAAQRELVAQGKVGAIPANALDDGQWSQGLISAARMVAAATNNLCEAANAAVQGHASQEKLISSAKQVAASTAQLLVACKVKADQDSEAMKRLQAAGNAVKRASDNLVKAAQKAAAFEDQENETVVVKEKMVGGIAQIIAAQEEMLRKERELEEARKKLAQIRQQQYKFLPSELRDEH

Q: “HDRREFAKFEKEKMNAKWDTGENPIYKSAVAAVVNPKYEGK [β1-TT/AA]” was tested. Which Kd [1] did it give?
A: The Kd was 100 ± 15 µM.

Q: And the Kd (kindlin-2)?
A: The Kd was 151 ± 1 µM.

Q: What does the source list for “KWDTGENPIYKEAVpTpTFTVDFTFNKFNPKYEGK-OH [β3/β5-pTpT, chimeric β3/β5-pTpT peptide]”?
A: binding of the anti-β1-pTpT antibody to the immobilized peptide (in words) [2]: detected binding; binding of the anti-β1-pTpT antibody to the immobilized peptide (in words) [3]: detected binding

Q: How did the Kd (kindlin-2) turn out when “HDRREFAKFEKEKMNAKWDTGENPIAKSAVTTVVNPKYEGK [β1-Y783A]” was run?
A: Its Kd is 4.9 ± 0.7 µM.

Q: What does the source list for “β1-TT/AA integrin on β1-KO fibroblasts (from UniProt P09055 21-798) (receptor)”?
A: percent of binding probability experiments with multiple unbinding events (FNIII7-10^RGD): 7.7%; percent of binding probability experiments with more than one unbinding event (FNIII7-10^ΔRGD): < 3%

Q: With “LLQEKGGYIPSGPIpTpTIHENEVVKSPSQPG-OH [Wwc2-pTpT, unrelated peptide with a bi-phosphorylated double-threonine motif derived from the cytosolic scaffolding protein Wwc2]” as the molecule, how does the “binding of the anti-β1-pTpT antibody to the immobilized peptide (in words)” value [2] read?
A: Its value is “detected binding”.

Q: What about the “binding of the anti-β1-pTpT antibody to the immobilized peptide (in words)” value [3] of the same molecule?
A: The value was “detected binding”.

Q: For “β1-WT integrin on β1-KO fibroblasts (β1-class integrins) (from UniProt P09055 21-798) (receptor)”, which percent of binding probability experiments with multiple unbinding events (FNIII7-10^RGD) is on record?
A: Its percent of binding probability experiments with multiple unbinding events is 32.3%.

Q: What about the percent of binding probability experiments with more than one unbinding event (FNIII7-10^ΔRGD) of the same molecule?
A: The percent of binding probability experiments with more than one unbinding event was less than 3%.

Q: What does the source list for “EYEFEPDKVDTGAKGTKMAKNEKKFRNYTVHNIWESRKVAP-OH [scrambled, scrambled β1 integrin cytoplasmic tail peptide used as control, reference compound]”?
A: SNX17 binding to the peptide (in words) (endogenous SNX17): lost; kindlin-2 binding to the peptide (in words) (endogenous kindlin-2): lost

Q: “β1-TT/DD integrin on β1-KO fibroblasts (from UniProt P09055 21-798) (receptor)” was tested. Which percent of binding probability experiments with multiple unbinding events (FNIII7-10^RGD) did it give?
A: Its percent of binding probability experiments with multiple unbinding events is 3.8%.

Q: What about the percent of binding probability experiments with more than one unbinding event (FNIII7-10^ΔRGD) of the same molecule?
A: Its percent of binding probability experiments with more than one unbinding event is less than 3%.

Q: How did the percent of binding probability experiments with multiple unbinding events (FNIII7-10^RGD) turn out when “β1-TT/EE integrin on β1-KO fibroblasts (from UniProt P09055 21-798) (receptor)” was run?
A: Its percent of binding probability experiments with multiple unbinding events is 4.6%.

Q: And the percent of binding probability experiments with more than one unbinding event (FNIII7-10^ΔRGD)?
A: The percent of binding probability experiments with more than one unbinding event was less than 3%.

Q: How did the Kd [1] turn out when CC[C@H](C)[C@H](NC(=O)[C@@H]1CCCN1C(=O)[C@H](CC(N)=O)NC(=O)[C@H](CCC(=O)O)NC(=O)CNC(=O)[C@@H](NC(=O)[C@H](CC(=O)O)NC(=O)[C@H](Cc1c[nH]c2ccccc12)NC(=O)[C@H](CCCCN)NC(=O)[C@H](C)NC(=O)[C@H](CC(N)=O)NC(=O)[C@H](CCSC)NC(=O)[C@H](CCCCN)NC(=O)[C@H](CCC(=O)O)NC(=O)[C@H](CCCCN)NC(=O)[C@H](CCC(=O)O)NC(=O)[C@H](Cc1ccccc1)NC(=O)[C@H](CCCCN)NC(=O)[C@H](C)NC(=O)[C@H](Cc1ccccc1)NC(=O)[C@H](CCC(=O)O)NC(=O)[C@H](CCCNC(=N)N)NC(=O)[C@H](CCCNC(=N)N)NC(=O)[C@H](CC(=O)O)NC(=O)[C@@H](N)Cc1c[nH]cn1)[C@@H](C)O)C(=O)N[C@@H](Cc1ccc(O)cc1)C(=O)N[C@@H](CCCCN)C(=O)N[C@@H](CO)C(=O)N[C@@H](C)C(=O)N[C@H](C(=O)N[C@H](C(=O)N[C@H](C(=O)N[C@H](C(=O)N[C@H](C(=O)N[C@@H](CC(N)=O)C(=O)N1CCC[C@H]1C(=O)N[C@@H](CCCCN)C(=O)N[C@@H](Cc1ccc(O)cc1)C(=O)N[C@@H](CCC(=O)O)C(=O)NCC(=O)N[C@@H](CCCCN)C(=O)O)C(C)C)C(C)C)[C@@H](C)O)[C@@H](C)O)C(C)C [β1-WT] was run?
A: Its Kd is 140 ± 20 µM.

B1: β1-pTpT peptide, Atto488-labeled (peptide)
peptide: HDRREFAKFEKEKMNAKWDTGENPIYKSAV[pT][pT]VVNPKYEGK
modifications: also: Atto488 label, position not given here
Q: With B1 as the molecule, how does the Kd [4] read?
A: Its Kd is 140 µM.

B2: β1-TT/DD peptide, Atto488-labeled (peptide)
chain: HDRREFAKFEKEKMNAKWDTGENPIYKSAVDDVVNPKYEGK
modifications: also: Atto488 label, position not given here
Q: For B2, which Kd [4] is on record?
A: Its Kd is 170 µM.

B3: β1-WT peptide, Atto488-labeled (peptide)
peptide: HDRREFAKFEKEKMNAKWDTGENPIYKSAVTTVVNPKYEGK
modifications: also: Atto488 label, position not given here
Q: With B3 as the molecule, how does the Kd [4] read?
A: The Kd was 140 µM.

B4: β1-Y783A peptide, Atto488-labeled (peptide)
peptide: HDRREFAKFEKEKMNAKWDTGENPIAKSAVTTVVNPKYEGK
modifications: also: Atto488 label, position not given here
Q: Which Kd (recombinant kindlin-2) does the source give for B4 here?
A: The Kd was 4.9 µM.

B5: β1-TT/AA peptide, Atto488-labeled (peptide)
chain: HDRREFAKFEKEKMNAKWDTGENPIYKSAVAAVVNPKYEGK
modifications: also: Atto488 label, position not given here
Q: B5 was tested. Which Kd [4] did it give?
A: The Kd was 100 µM.

Q: What about the Kd (recombinant kindlin-2) of the same molecule?
A: Its Kd is 151 µM.
